Results: the nanobody polyreactivity screen of Harvey et al. (2022)

Experiment: yeast display, Sf9 membrane polyspecificity reagent, FACS + sequencing; frameworks hold sequencing errors
In short: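 Synthetic nanobody libraries on Saccharomyces cerevisiae BJ5465 were galactose-induced for 36–48 hours, stained 1 hour at 4 °C with 10% biotinylated, detergent-solubilized Sf9 membrane reagent and enriched on streptavidin microbeads. FACS then separated cells into low and high (top ~1%) gates by anti-HA (expression) and streptavidin (reagent binding) fluorescence. Genes were colony-PCR amplified, MiSeq 2 × 250 sequenced and CDR-length filtered. A clone's polyreactivity label is that of its gate of origin.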

| Sequence | polyreactivity (PSR sort gate) |
| --- | --- |
| QVQLVESGGGLVQAGGSLRLSCAASGFTFYYYAMGWYRQAPGKERELVAAISTRDGNTYYADSVKGRFTISRDNAKNTVYLQMNSLKPEDTAVYYCAADYFRYYPYDYSGQGTQVTVSS | low polyreactivity |
| QVQLVESGGGLVQAGGSLRLSCAASGRTFTYNAMGWYRQAPGKDRELVASIRRSGTITYSADSVKGRFTISRDNAKNTVYLQMNSLKPEDTAVYYCAARYPWYRYYSWGQGTQVTVSS | high polyreactivity |
| QVQLVESGGGLVQAGGSLRLSCAASGITFDYYVMGWYRQAPGKERELVAAISWSGGTTYYADSVKGRFTISRDYAKNTVYLQMNSLKPEDTAVYYCNAEHTGSFYGGYPWEMEYWGQGTQVTVSS | low polyreactivity |
| QVQHVESGGGLVQAGGSLRLSSAASGSIIGYYAMGWYRQAHGKERELVAAITWSGGRTYYADSVKGRFTISRDNAKNTVYFQMNSLKPEDTAVYYSNAANSRSAYYNWGHGTQVTVSS | high polyreactivity |
| QVQLVESGGGLVQAGGSLRLSCAASGRTFGVYAMGWYRQAPGKERELVADITSGGGTYYADSVKGRFTILRDNAKNTVYLQMNSLKPEDTAVYYCAARKWYYAYDYWGQGTQVTVSS | high polyreactivity |
| QVQLVESGGGLVQAGGSLRLSCAPSGSIFSYYDIGWYIQAPGKERELVAAISWDGGDRTYADSVKGRFTISRDNAKNTVYLQMTSLKPEDTAVYYFAAGWDASYGYDYWGQGTQLTVSS | low polyreactivity |
| QVQLVESGGGLVQAGGSLRLSCAASGFIFYSNPMGWYRQAPGKERELVAAITSGGSTYYADSVKGRFTISRDNAKNTVYLQMNSLKPEETAVYYCAAVVRVYFRGFTSYDYWGQGTQVTVSS | high polyreactivity |
| QVQLVESGGGLVQAGGSLRLICAASGSTFGPNGMGWYRQAPGKERELVARIDRIGGGTYYADSVKGRFTISRDNAKNTVYLQMNSLKPEDTAVYYCAADGPSPFIQGYAKGDYWGQGTQVTVSS | low polyreactivity |
| QVQLVESGGGLVQAGGSLRLSCAASGFTFNSYAMGWYRQAPGKERELVAAITSSGGLTYYADSVKGRFTISRDNAKNTVYLQKNSLKPEDTAVYYCAARPGGKVATIYDYWGQGTQVTVSS | low polyreactivity |
| QVQLVESGGGLVQAGGSLRLSCAAYGSIRNFYAMGWNRKAPGKERELVPTISSGGNTHYADSVKGRFTISRDNAKNTVYFQMTSLKPEDTAVYYCNKVTIGGFFWYRAYDYWGQGTQVTVSS | low polyreactivity |
| QVQLAESGRGLVQAGGSLRLSCADSGIIYYFYAMGWYRQAPGKETEFVAAISGTGGRTYYADSVKGRFTISRDNAKNTVYLQMNSLKPEDTAVYYCNADDTPVPSIRFDYWGQGTQVTVSS | low polyreactivity |
| QVQLVESGGGLVQAGGILRLSCAASGFTFVGNAMGWYRKAAGKERELVATITSGGNTKYADSVKGRFTISRDNAKNTVYLQMNSLTPEDTAVYYCAAAKYNYRRFKYWGQGTQVTVSS | low polyreactivity |
| QVQLVESGGGLVQAGGSLRLSCAASGRIFRRNAMGWSRQAPGNERELVAAISSSGGRTYYADSVKGRFTISRDNAKNTVYLEMNSLKPEDTAVYYCAARIRTVAHVDYDYWGQGTQVTVSS | high polyreactivity |
| QVQLVESGGGLVQAGGSLRLSCAASGSTFGHNVMGWYRQAPGKERELVAVISWRGGSTSYADSVKGRFTISRDNAKNTVYLQMNSLKPEDTAVYYCAKPALRYSSRYDSWGQGTQVTVSS | high polyreactivity |
| QVQLVESGGGLVQSGGSLRLSCAASGRTFGYNAMGWYRQAPGKERELVAAISRSGDSTYYADSVKGRFTISRDNAKNTVYLQMNSLNPEVTAVFYCATRYVTTGYDYWGQGTQVTVSS | low polyreactivity |
| QVQLVESGGGLVQAGGSLRLSCAASGSIFPWYTMGWYRQAPGKERELVAAITSSGGGTYYADSVKGRFTISRDNAKNTVYLQMNSLKPEDTAVYYCAAGLDWGPEYEYWGQGTQVTVSS | low polyreactivity |

| Sequence | polyreactivity (PSR sort gate) |
| --- | --- |
| QVQLVESGGGLVQAGGSLRLSCAASGSTFPYYARGWYRQAPGKERELVAAITSGGSTNYADSVKGRFTISRDNAKNTVYLQMNSLKPEDTAVYYCAARLRYTTVIYYYWGQGTQVTVSS | high polyreactivity |
| QVQLVESGGGLVQAGGSLRLSCAASGSIFGIYVMGWYRQAPGKERELVAGISTRGGSTYYADSVKGRFTISRDNAKNTVYLQMNSLKPEDTAGYYCAAVPASYRDPMYYWGQGTQVTVSS | low polyreactivity |
| QVQLVESGGGLVQAGGSLRLSCGASGSTFAINAMGWYRQAPGKERELVAAINWSGTTTYYADSVKGRFTISRDNAKNTVYLQMNSLKPEDTAVYYCNARYYVLRGYDYWGQGTQVTVSS | low polyreactivity |
| QVQLVESGGGLVQAGGSLRLSCAASGRTFERYAMGWYRQAPGKERELVAAISWSGSSTYYADSVKARFTISRDISKNTVYLHMNSLKPEDTAVYYCNALFQQRYGYWGQGTQVTVSS | low polyreactivity |
| QVQRVESWGGLVQAGGSLRLSCAASGFTFSDNAMGWYRQAPGKERELVAAISRRGGSTYYADSVKGRFTISRDNAKNTVYLQMNSLKPEVTAVYYCAAVRASSKVHTRTYDYWGQGTQVTVSS | high polyreactivity |
| QVQLVESGGGLVQAGGSLRLSCAASGRIVTSNAMGWYRQAPGKERELVAVISRRGGSTYYADYVKGRFTITRDNAKNTVYLQMNSVKPEDTAVYYCARRPYSYTRYEYWGQGTQVTVSS | low polyreactivity |
| QVQLVESGGGLVQAGGSLRLSCAASGSIFHTYAMGWYRQAPGKERELVAAISGIGGSTYYADSVKGRFTISRDNAKNTVYLQMNSLKPEDTAVYYCAVELYWYPGYDYWGQGTQVTVSS | low polyreactivity |
| QVQLVESGGGLVQAGGSLRLSCAASGFTFYFNAMGWYRQAPGKERELVAGITSGGSTNYADSVKGRFTISRDNAKNTVYLQMNSLKPEDTAVYYCATDLLNNVDYDYWGQGTQVTVSS | low polyreactivity |
| QVQLVESGGGLVQAGGSLRLSCAASGLTFYYYAMGWYRQSPGKEREFVAAISRSGGTTYYADSVKGRFTISRDNAKNTVYLQMNSLKPEDTAVYYCAKASRYWSLYYWGQGTQVTVSS | high polyreactivity |
| QVQLVESGGGLVQAGGSLRLICAASGFIYHNAMGWYRQATGTERELVARITWSGGSTSYADSVKGRFTISRDNAKNTVYLQKNSLKPEDTAVYYCAARGVVYRYGASRGYWGQGTQVTVSS | high polyreactivity |
| QVQLVESGGGLVQAGGSLRLSCEASGSTFLRNAMGWYRQAPGKKGSWVATISYAGDSTYYADSVKGRFTLSRDNAKNTVYLQMNSLKPEDTAVYYCAASYSLTFWDKDDYWGQGTQVTVSS | low polyreactivity |
| QVQLGESGGGLVQAGGSLRLSCAASGSTFTRYGMGWYRQAPGKERELVAAITTSGSSTYYADSVKGRFTISRDNAKNTVYLQMNSLKPEDTAVYYCAADWSSWGFDYWGQGTQVTVSS | low polyreactivity |
| QVQLVESGGGLVQAGGSLRLSCAASGRIFVIYAMGWYRQAPGKERELVASIRSSSTYYADSVKGRFTISRDNAKNTVYLQMNSLKPEDTAVYYCAAVAEYRGYDYWGQGTQVTVSS | low polyreactivity |
| QVQLVESGGGLVQAGGSLRLSCAASGSTFPQNAMGWYRQAPGKERELVAAISRSGGRTYYADSVKGRFTISRDNAKNTVYLQMNILKPEDTAVYYCNAGFYQKYDYWGQGTQVTVSS | high polyreactivity |
| QVQLVESGGGLVQAGGSLRLSCAASGFTFRVYAMGWYIQAPGKERELVAAITKRGGTTYYADSVKGRFTISRDNAKNTVYLQMNSLKPEDTAVYYCATENTPHYASHGYLGQGTQVTVSS | high polyreactivity |
| QVQLVESGGGLVQAEGSLRLSCAASGRTSVLYAMGWNRQAPGKEREFVAAITWNSGSTYYADSVKGRFTISRDNAKNTVYIQMTRLKPEDTAVYYCNADYYFSSYRSTYDYWGQGTQVTVSS | low polyreactivity |
